Entries after “also recorded” stand apart in the source; their conditions may differ.
Experiments:
D1L3 = details: cited from earlier work
free DNA = experiment: Radial diffusion assay (RDA) of nuclease activity against free DNA in conditioned media; format: biochemical; details: media conditioned by transfected HeLa cells; 24 hours, 37 degrees
Experimental: (§1) Transfection Reagents and Resistance Assays. Lipofection of respective pcDNA3.1-D1 or -D3 ([…] purified with Promega Wizard Plus DNA system) was performed independently into 1-2 million HeLa cells, which produce a low background of secreted nuclease activity, when grown in DMEM with 10% FCS (LifeTech) in 6 well culture plates (Becton-Dickinson). […] Media of the transfected cells were conditioned for 36-48 hours and served as source of the respective enzymes. Nuclease activity in conditioned supernatant was measured by RDAs, zymograms and by testing activity against supercoiled pBluescript (Stratagene).
Nuclease Assays. Nuclease activity against “naked” or free DNA in CM was quantified by densitometry of RDAs. For assays of media by murine cells, RDAs were performed using conditioned media, after 36 hour incubation of equal numbers of target cell population. Each conditioned media was sampled in triplicate. RDAs for all four mice were performed on a single dish. For RDAs, 2-5 ul of conditioned supernatant was dotted on 100 mm dishes containing 2% agarose, 250 ug/ml DNA, 0.001% EtBr, 0.5% filtered milk, 10 mM Ca^+2/MgCl2; and 12.5 ug/ml kanamycin. Multiple observations were generated for every sample obtained. After 24 hours of 37° incubation, plates are photographed under UV transillumination; and scanned photos were analyzed with NIH image. For RDAs, the activity was quantified as the product of mean density and area (traced on image) of zones of clearing. For observations of serum/urine, 2-5 ul of serum were dotted on agarose plates.
Zymograms are in-gel renaturation assays performed by SDS-PAGE through a gel impregnated with 200 µg/ml DNA and ethidium bromide, eluting away SDS with repeated washes in 25 mM Tris-HCl pH 7.5, then incubating for 12-16 hours at 37° C. in 25 mM Tris-HCl pH 7.5 with 10 mM Ca^+2/Mg^+2 buffer. Activity is measured as dark “bands” of DNA digestion (Rosenthal et al., (1977) Anal. Biochem. 80, 76-90) and quantified using scanned images using NIH Image. Photographed RDA results were scanned 600 dpi Tiff images, and activity was measured as pixel area times density of traced zones of clearing (n=3 for each zone). Student's T-test was used to compare paired results. Nuclease activity ratios were obtained by comparing intra-plate results.

HeLa cells = experiment: BT assay: liposomal N1-eGFP transfection of HeLa cells in DNASE-conditioned media, GFP immunoblot; format: cell-based; details: for GFP transfection in ten-fold diluted conditioned media: ten-fold (five and ten fold) dilution of conditioned media; for BT activity / GFP expression or transfection efficiency in cells exposed to undiluted conditioned media: FuGENE-6, anti-GFP immunoblot
Experimental: In the main assay, an eukaryotic marker such as green fluorescent protein (GFP) expression plasmid complexed with a lipid reagent is transfected into HeLa cells incubated in control media, D1L3-conditioned media, or D1-conditioned media (FIG. 4). The assay is not limited to the use of GFP as a marker, but could use any of many expressed biomarkers encoded by nucleotides that can be assayed either immunochemistry, fluorescent detection, or enzymatic detectection, and these include but are not circumscribed to luciferase, chloramphenicol acetyl-transferase, antibiotic or chemical resistance genes, Beta-galactosidase, FLAG-, myc-hemaglutinnin-, or other epitope tagged molecules, as well as other markers of gene or nucleotide transduction. The endpoint of the assay is the detection of a synthesized protein, but could easily have been the detection of a transcribed gene product, since the assay ultimately measures the ability of D1L3 added the media/milieu overlaying the cells to block the ultimate association of an expressible plasmid with the transcriptional machinery.
as §1
To test for the ability of the nucleases to block transfection, the media in individual wells of naive HeLa cells were replaced with conditioned media, and cells transfected with […] of N1-eGFP plasmid (Clontech) using various transfection reagents (FIG. 11) and their respective protocols. GFP expression by immunoblot directly correlated with transfection efficiency in present experiments. Thus, transfection efficiency was compared by densitometric analysis of GFP immunoblots.
GFP expression was also examined by fluorescent microscopy using a FITC filter. For microscopy, cells were fixed for 5 minutes in 4% paraformaldehyde dissolved into 1% PBS.
Antibody Reagents and Immunoblotting. After 24-36 hours, cells transfected with N1-eGFP were lysed in SDS-buffer and immunoblotted for expression with anti-GFP at 1:5000 dilution (Clontech). To confirm nearly equal protein loading per lane, anti-β-actin monoclonal antibody at 1:7,000 dilution (Sigma) were prepared. For immunoblots, […] protein was eletrophoretically separated by 12% SDS-PAGE gel, followed by electrotransfer to Immobilon-P membranes (Millipore) for expression studies. Immunoblotting was performed using ECL detection (Amersham).
Transfection efficiency was compared, wherever possible, by pixel densitometry of the scanned images using Scion Image 4.02 software.

liposomal-bound plasmid = experiment: Cell-free nuclease activity assay on free or FuGene-bound plasmid; format: biochemical; details: FuGene-bound plasmid, 37° C., 1 hour
Experimental: FIG. 16. […] Representative experiment (n=3) of exposure of […] free (−) or liposomal-bound (+FuGene) plasmid to control media with 10% fetal calf serum (lanes 1-2), D1 (lanes 3-4), D1L3 (lanes 5-6), D3DCT (lanes 7-8), and N196K-D3 (lanes 9-10).
Cell-Free Nuclease Activity Assay. Free plasmid DNA or plasmid complexed with lipofection reagent was incubated with conditioned at 37° C. for 1 hour. The incubation was terminated with […] EDTA, and DNA extracted using Promega Wizard DNA Purification System, eluted in […] water, and electrophoresed on a 1% agarose gel.

Ad5.CMV-GFP = experiment: Adenoviral gene transduction of HeLa cells in conditioned media, GFP immunoblot; format: cell-based, adenovirus serotype 5; details: lysed at 72 hours
Experimental: FIG. 30. D3-media confers an in vitro barrier to adenoviral gene transduction (BT). This figure provides anti-GFP immunoblots at 1:5000 (Clontech) of Ad.V.GFP infected (MO 100:1) of 100,000 HeLa cells. Infection of HeLa cells with Ad5.CMV-GFP (a 1st generation (DE1/DE3) adenovirus serotype 5 expressing GFP under the control of CMV-IE promoter (Qbiogene)) was performed in the presence of D1, D3, D1+D3CT, or control conditioned media. Infected cells were lysed at 72 hours and tested for GFP expression (n=3 expts). […] Thus DNASE1L3 or DNASE enzymes linked to the D3CT diminish adenoviral gene transfer. […] Actin levels were generally equivalent in infected cells.

Row | Molecule | effect on D1L3 DNASE activity (D1L3) | mean RDA activity of conditioned media (free DNA) | GFP fluorescence by fluorescent microscopy (HeLa cells; 24 hours) | BT effect of diluted conditioned media (HeLa cells; diluted 100 fold with control media or 10-fold with N196K conditioned media) | GFP transduction after pre-incubation in conditioned media (HeLa cells; naive cells incubated six hours, rinsed twice with PBS, transfected in control media) | GFP transfection in ten-fold diluted conditioned media (HeLa cells) | GFP transfection in ten-fold diluted conditioned media (HeLa cells; listed as 89T) | GFP transfection in ten-fold diluted conditioned media (HeLa cells; listed as D3) | BT activity / GFP expression or transfection efficiency in cells exposed to undiluted conditioned media (HeLa cells) | BT activity / GFP expression or transfection efficiency in cells exposed to undiluted conditioned media (HeLa cells; listed as 89T) | BT activity / GFP expression or transfection efficiency in cells exposed to undiluted conditioned media (HeLa cells; listed as D3) | state of liposome-bound plasmid after exposure to conditioned media (liposomal-bound plasmid) | state of liposome-bound plasmid after exposure to conditioned media (liposomal-bound plasmid; listed as D1L3-CM) | GFP expression after Ad5.CMV-GFP infection / barrier to infection (Ad5.CMV-GFP) | GFP expression after Ad5.CMV-GFP infection / barrier to infection (Ad5.CMV-GFP; listed as D3)
1 | O=C(O)CN(CCN(CC(=O)O)CC(=O)O)CC(=O)O [EDTA] | block D1L3 DNASE activity |  |  |  |  |  |  |  |  |  |  |  |  |  | 
2 | [Zn+2] [zinc] | block D1L3 DNASE activity |  |  |  |  |  |  |  |  |  |  |  |  |  | 
3 | D1L3: Deoxyribonuclease 1-like 3; murine wild-type (C57BL, 89T) enzyme supplied as media conditioned by transfected HeLa cells (protein) LRLCSFNVRSFGASKKENHEAMDIIVKIIKRCDLILLMEIKDSSNNICPMLMEKLNGNSRRSTTYNYVISSRLGRNTYKEQYAFVYKEKLVSVKTKYHYHDYQDGDTDVFSREPFVVWFHSPFTAVKDFVIVPLHTTPETSVKEIDELVDVYTDVRSQWKTENFIFMGDFNAGCSYVPKKAWQNIRLRTDPKFVWLIGDQEDTTVKKSTSCAYDRIVLCGQEIVNSVVPRSSGVFDFQKAYDLSEEEALDVSDHFPVEFKLQSSRAFTNNRKSVSLKKRKKGNRS |  | 12.0 Units | absence of GFP fluorescence | complete BT effect | blocked | No GFP expression is clearly detectable | nearly completely blocks GFP transduction; also recorded: no GFP transfection efficiency | No GFP expression is clearly detectable | No GFP expression; also recorded: effectively blocks transfection efficiency | saturated BT activity | prevents GFP expression; also recorded: abolished | mostly supercoiled plasmid is protected | does not completely digest liposomal-bound DNA | afford a barrier to infection | prevents GFP expression

Reference: patent US20040138156A1, “Therapeutic regulation of deoxyribonuclease-1-like-3 activity” (priority 2002, published 2004)
